Source: paper PMC7897479

Legend:
[1] = biological target: T1, SpCas9-His (Streptococcus pyogenes, UniProt Q99ZW2 1-1368); experiment: EMSA
[2] = biological target: T1, SpCas9-His; experiment: SPR

T1 sequence (Q99ZW2 whole entry): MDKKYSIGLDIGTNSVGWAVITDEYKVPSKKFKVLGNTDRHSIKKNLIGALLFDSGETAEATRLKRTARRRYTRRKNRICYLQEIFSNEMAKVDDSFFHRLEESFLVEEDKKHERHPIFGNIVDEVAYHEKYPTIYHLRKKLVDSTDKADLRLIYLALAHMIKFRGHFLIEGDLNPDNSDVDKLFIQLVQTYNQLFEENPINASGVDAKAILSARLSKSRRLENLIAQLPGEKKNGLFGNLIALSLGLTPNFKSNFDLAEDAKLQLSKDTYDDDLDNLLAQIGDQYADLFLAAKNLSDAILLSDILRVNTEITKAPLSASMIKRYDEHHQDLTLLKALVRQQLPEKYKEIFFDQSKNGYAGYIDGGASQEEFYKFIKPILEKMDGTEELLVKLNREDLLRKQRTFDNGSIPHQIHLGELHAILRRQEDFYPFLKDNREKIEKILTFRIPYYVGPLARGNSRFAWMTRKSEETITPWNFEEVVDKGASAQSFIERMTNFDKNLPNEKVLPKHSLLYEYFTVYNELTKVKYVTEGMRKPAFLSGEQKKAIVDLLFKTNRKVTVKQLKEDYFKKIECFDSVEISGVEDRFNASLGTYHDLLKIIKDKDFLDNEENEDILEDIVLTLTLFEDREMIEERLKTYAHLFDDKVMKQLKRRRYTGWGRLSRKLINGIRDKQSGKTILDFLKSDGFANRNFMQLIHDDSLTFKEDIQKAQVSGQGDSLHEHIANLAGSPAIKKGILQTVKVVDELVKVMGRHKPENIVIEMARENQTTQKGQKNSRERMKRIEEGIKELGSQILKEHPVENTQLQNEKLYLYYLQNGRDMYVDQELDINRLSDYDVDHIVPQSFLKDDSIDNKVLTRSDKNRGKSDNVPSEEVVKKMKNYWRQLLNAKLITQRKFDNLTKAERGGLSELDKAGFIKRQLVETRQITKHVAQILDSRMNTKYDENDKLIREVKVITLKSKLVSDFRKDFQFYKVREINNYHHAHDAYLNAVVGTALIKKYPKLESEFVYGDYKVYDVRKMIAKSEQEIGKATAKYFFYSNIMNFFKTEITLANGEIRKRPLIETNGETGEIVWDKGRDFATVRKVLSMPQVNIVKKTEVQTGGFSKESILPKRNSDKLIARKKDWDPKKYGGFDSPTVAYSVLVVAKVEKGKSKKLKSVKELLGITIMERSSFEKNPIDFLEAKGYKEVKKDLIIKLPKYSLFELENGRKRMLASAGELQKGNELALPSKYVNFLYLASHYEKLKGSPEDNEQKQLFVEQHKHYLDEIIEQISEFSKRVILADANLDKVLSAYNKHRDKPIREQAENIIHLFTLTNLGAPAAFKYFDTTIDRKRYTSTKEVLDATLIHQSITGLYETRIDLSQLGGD

| Binder | binding result [1] | also measured |
| --- | --- | --- |
| GAGGCTCTCACAGTAATGTGAGAGCCT (structured_DNA) [Loop-NC for EMSA] | no binding | – |
| GGTCCTCACACCGCTGTGTGCCGCAACACTGTGAGGACC (structured_DNA) [SA-Ap (streptavidin aptamer)] | no binding | – |
| GAGGCTCTCACAGCGCGCCTTTCGTTGTGAGAGCCTC (structured_DNA) [SS21 NM2] | no binding | – |
| GAGGCTCTCACATCGCGCCTTTCCCCAGCTTTCGGTGTGAGAGCCTC (structured_DNA) [S21 for Biacore] | – | Kd [2]: 0.63 nM |
| GAGGCTCTCACAGTAATGTGAGAGCCT (structured_DNA) [Loop-NC for Biacore] | – | binding result [2]: no binding |
